In the RNAGym collection of RNA variant scans (doi:10.7554/elife.80360):

B1: HDV Ribozyme (parent)
chain: GGCCGGCAUGGUCCCAGCCUCCUCGCUGGCGCCGGCUGGGCAACAUUCCGAGGGGACCGUCCCCUCGGUAAUGGCGAAUGGGACCCA

Variants of: B1
Test: self-cleavage, relative activity (ratio to wild type); higher = more cleavage; co-transcriptional
G76A gave a self-cleavage of 1.04. Variant C24G C44G has a self-cleavage of 0.125. Work on C3A G29A yielded a self-cleavage of 0.012. With A8C A83C the self-cleavage was 0.317. Work on G40C C85G yielded a self-cleavage of 0.16. C24U C48U gave a self-cleavage of 0.604. C3U A78U showed a self-cleavage of 0.117. With C7U A70C the self-cleavage was 0.923. Work on G25C G28U yielded a self-cleavage of 0.119. Work on G59C C64U yielded a self-cleavage of 1.14. C61G G67A showed a self-cleavage of 0.743. With U79C G80U the self-cleavage was 0.267. C22G C49U showed a self-cleavage of 0.0639. For U12C C30U, the self-cleavage was 0.156. Variant C32A G52A has a self-cleavage of 0.302. G11U G73A showed a self-cleavage of 0.138. In the case of G39U G73A, the self-cleavage is reported as 0.249. For G34A A71G, the self-cleavage was 0.178. U20A C36U showed a self-cleavage of 0. A43U A56G showed a self-cleavage of 0.665. U9C U47A gave a self-cleavage of 1.11. Work on C19U G28A yielded a self-cleavage of 0.956. With G39C G82U the self-cleavage was 0.0791. U69G A70C gave a self-cleavage of 1.15. Work on C57G G82A yielded a self-cleavage of 0.302. Variant G39C A51U has a self-cleavage of 0.219. Variant U47A G55C has a self-cleavage of 1.15. G10U C85U gave a self-cleavage of 0.946. U27C G53A showed a self-cleavage of 0.696. Variant G5U C84G has a self-cleavage of 0.262. Variant G59A G68A has a self-cleavage of 0.968. Variant U23G C63A has a self-cleavage of 0.623. G5A U9C gave a self-cleavage of 0.0639. Work on U12G C24G yielded a self-cleavage of 0.136. Work on A8U C15U yielded a self-cleavage of 0.935. In the case of C3A G55U, the self-cleavage is reported as 0.563. In the case of U20A G34C, the self-cleavage is reported as 0.199. Variant G25U C44A has a self-cleavage of 0.0852. Work on G59U G67U yielded a self-cleavage of 1.17. U37A U79A gave a self-cleavage of 0.246. With U27A C62A the self-cleavage was 0.872. Variant C21U G81C has a self-cleavage of 0.106. With G40A G52A the self-cleavage was 0.858. Variant G38U C66A has a self-cleavage of 0.185. Work on C26U U79A yielded a self-cleavage of 1.04. G1U C66A gave a self-cleavage of 0.535. Variant G34A C44G has a self-cleavage of 0.134. Work on G11A G39A yielded a self-cleavage of 0.0936. Variant U60G C61A has a self-cleavage of 1.11. With C58A C66U the self-cleavage was 0.917. For G1C A56C, the self-cleavage was 0.172. With C61U U79C the self-cleavage was 0.487. C32A C44U gave a self-cleavage of 0.0875. Variant C22A U27C has a self-cleavage of 0.317. With C22G C66A the self-cleavage was 0.0692. G1A C7U gave a self-cleavage of 0.0475. Work on C18A C19G yielded a self-cleavage of 0.145. With G28C C57U the self-cleavage was 0.0277. In the case of C33U G53A, the self-cleavage is reported as 0.95. U20A C48G showed a self-cleavage of 0. Variant C30U C33G has a self-cleavage of 0.266. In the case of G68U A78C, the self-cleavage is reported as 0.161. C62G G68U gave a self-cleavage of 0.425. Work on G31U A56U yielded a self-cleavage of 0.489. U46G A77C showed a self-cleavage of 0.0875. In the case of G29C G82A, the self-cleavage is reported as 0.117. Work on C18U U47G yielded a self-cleavage of 0.608. Variant A43G U69C has a self-cleavage of 0.302. For A8C C18A, the self-cleavage was 0.0415. G6U U27C showed a self-cleavage of 0.237. C32A G50A showed a self-cleavage of 0.136. A56U U60C showed a self-cleavage of 1.13. C30G C36G showed a self-cleavage of 0.0594. G28C G29A showed a self-cleavage of 0.0692. G6U U72C gave a self-cleavage of 0. In the case of G55U A71C, the self-cleavage is reported as 0.725. For G11C A51G, the self-cleavage was 0.297. G54U C64U showed a self-cleavage of 0.905. Variant C19A C57A has a self-cleavage of 0.0801. C7G U47C showed a self-cleavage of 0.293. C15U C24U gave a self-cleavage of 0.717. With G54A A87U the self-cleavage was 0.922. A8U A71G showed a self-cleavage of 0.917. C15G A83G gave a self-cleavage of 0.185. For U23G C62G, the self-cleavage was 0.453. For A43C U46A, the self-cleavage was 0.877. Variant C3U A87C has a self-cleavage of 0.759. C19U G59C gave a self-cleavage of 0.205. Variant G34A U46C has a self-cleavage of 0.215. Variant C33U C57A has a self-cleavage of 0.935. A8U C57G showed a self-cleavage of 1.07. In the case of G2U G53U, the self-cleavage is reported as 0.0256. In the case of C7U A42G, the self-cleavage is reported as 0.415. For G39C C64A, the self-cleavage was 0.0369. Variant C24U C49U has a self-cleavage of 0.758. Variant C48U G53U has a self-cleavage of 0.923. For C26A A45G, the self-cleavage was 0.978. G50C G81U showed a self-cleavage of 0.263. For A16U C30U, the self-cleavage was 0.68. C18A C26G gave a self-cleavage of 0.119. For U9C G82C, the self-cleavage was 0.262. With G52U A87C the self-cleavage was 0.95. With A56C C86G the self-cleavage was 0.804. Work on G29U U69A yielded a self-cleavage of 0.0875. In the case of C14G G35A, the self-cleavage is reported as 0.199. C14G G35C gave a self-cleavage of 0. For G17U G74A, the self-cleavage was 0.129. With G54U C85A the self-cleavage was 0.964. Work on A45G C85G yielded a self-cleavage of 0.88. For C24U A51U, the self-cleavage was 0.681. G31C U37G showed a self-cleavage of 0.214. In the case of C7G C18U, the self-cleavage is reported as 0.0639. In the case of C19G U47G, the self-cleavage is reported as 0. C36G G54C showed a self-cleavage of 0.243. In the case of U12G U46G, the self-cleavage is reported as 0.692. G54C A77G showed a self-cleavage of 0.831. Work on C26U G52A yielded a self-cleavage of 1.14. Work on A78U C84G yielded a self-cleavage of 0.0396. Variant U37A C86G has a self-cleavage of 0.0875. With C21U U65C the self-cleavage was 0.198. In the case of C57A A83C, the self-cleavage is reported as 0.684. For C7U G67A, the self-cleavage was 0.904. In the case of C33U C62U, the self-cleavage is reported as 0.816. Variant A16U G76A has a self-cleavage of 0.939. Work on C22A C85U yielded a self-cleavage of 0.345. C41A A70C gave a self-cleavage of 0.527. Variant G50C A71G has a self-cleavage of 1.01. In the case of C33A C63A, the self-cleavage is reported as 0.196. In the case of C26G G53U, the self-cleavage is reported as 0.812. For G25U U72G, the self-cleavage was 0.181. C21U C36U gave a self-cleavage of 0.218. For A43C U60A, the self-cleavage was 0.249. Variant G17U A51G has a self-cleavage of 0.34. Variant G1A U60C has a self-cleavage of 0.166. Work on G40U U47G yielded a self-cleavage of 0.46. In the case of A16C U60A, the self-cleavage is reported as 1.11. For C61U A77C, the self-cleavage was 0.65. Variant G67U G74C has a self-cleavage of 0.151. Variant G5U C22U has a self-cleavage of 0.158. In the case of C4A A71G, the self-cleavage is reported as 0.151. U12G C66A gave a self-cleavage of 0.923. Variant G31U A70C has a self-cleavage of 0.161. Work on C66G yielded a self-cleavage of 0.973. G17C C32U gave a self-cleavage of 0. For G55C A83C, the self-cleavage was 0.314. Variant G2C A43C has a self-cleavage of 0.147. In the case of A43G A83C, the self-cleavage is reported as 0.268. Variant G34A C75U has a self-cleavage of 0.086. Work on U27A G67C yielded a self-cleavage of 0.59. For A45C C49A, the self-cleavage was 0.72. G2C C3A gave a self-cleavage of 0.103. In the case of A51U A77G, the self-cleavage is reported as 0.615. For G29A G40U, the self-cleavage was 0.0831. For G67U C84U, the self-cleavage was 0.771. G35C A56C showed a self-cleavage of 0.302. C3A G81U showed a self-cleavage of 0.107. Variant C22U C30A has a self-cleavage of 0.117. In the case of U9C C41G, the self-cleavage is reported as 0.831. G11A C75G gave a self-cleavage of 0.141. Work on A8G G68A yielded a self-cleavage of 1.03. Variant U69C U72A has a self-cleavage of 0.499. Work on C3U G5C yielded a self-cleavage of 0.0123. Work on U20C G38C yielded a self-cleavage of 0.0831. G1U C15G showed a self-cleavage of 0.0852. C22A G74A showed a self-cleavage of 0.0744. Variant G38U C44G has a self-cleavage of 0.0652. With G68C G82C the self-cleavage was 0.259.
